Source: paper PMC9293652 (The Journal of Biological Chemistry, 2022)
Where two headings read alike, the source gives them in different places.

T1: WWOX WW1-WW2 tandem domain (amino acids 16-91) (human)
T1 chain: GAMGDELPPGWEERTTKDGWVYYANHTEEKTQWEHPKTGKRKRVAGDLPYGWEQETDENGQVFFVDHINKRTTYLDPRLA

T2: WWOX WW1 (amino acids 16-50) (human)
T2 chain: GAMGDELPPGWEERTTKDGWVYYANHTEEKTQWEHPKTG

T3: WWOX WW2 (amino acids 57-91) (human)
T3 chain: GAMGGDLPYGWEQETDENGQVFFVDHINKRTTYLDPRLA


Key:
[1] = molecular target: WWOX WW1-WW2 tandem domain (amino acids 16-91) (human); assay: NMR titration
[2] = molecular target: WWOX WW1-WW2 tandem domain (amino acids 16-91) (human); assay: ITC
[3] = molecular target: T1, WWOX WW1-WW2 tandem domain (amino acids …); assay: ITC
[4] = molecular target: T1, WWOX WW1-WW2 tandem domain (amino acids …); assay: NMR titration
[5] = molecular target: T1, WWOX WW1-WW2 tandem domain (amino acids …); assay: NMR titration
[6] = molecular target: T2, WWOX WW1 (amino acids 16-50); assay: ITC
[7] = molecular target: T3, WWOX WW2 (amino acids 57-91); assay: ITC

Row | KD WW1 (based on W44) [1] [µM] | Kd [2] [µM] | Kd [3] [µM] | dH [3] [kcal/mol] | KD WW2 (based on V73) [4] [µM] | KD WW1 (based on W44) [5] [µM] | Molecule | also measured
1 | 10 | 30 | – | – | – | – | ErbB4 peptide PY3 (1293-1305) | KD WW2 (based on V73) [1]: > 1000 µM; dH [2]: -12.1 kcal/mol
2 | 21 | > 100 | – | – | – | – | ErbB4 peptide PY1 (1027-1039) | –
3 | 15 | > 100 | – | – | – | – | ErbB4 peptide PY2 (1048-1060) | –
4 | – | – | 21 | -29 | 70 ± 20 | 2 ± 1 | AFNIPPPIYTSRAGGGGGHSPPPAYTPMS [ErbB4 double-motif peptide PY1PY2S (natural linker replaced by polyglycine)] | –
5 | – | – | 8 | -22 | 80 ± 20 | 6 ± 1 | AFNIPPPIYTSRAGGGGGTVLPPPPYRHRN [ErbB4 double-motif peptide PY1PY3 (polyglycine linker)] | –
6 | – | – | 14 | -39 | ~1000 | 10 ± 2 | AFNIPPPIYTSRARIDSNRSEIGHSPPPAYTPMS [ErbB4 double-motif peptide PY1PY2 (1027-1060, natural linker)] | –
7 | – | – | 3.1 | -24.9 | 40 ± 20 | 0.6 ± 0.3 | GTVLPPPPYRHRNGGGGGTVLPPPPYRHRN [ErbB4 double-motif peptide PY3PY3 (polyglycine linker)] | Kd [6]: 50 µM; dH [6]: -39 kcal/mol
8 | – | – | – | – | – | – | GTVLPPPPYRHRN [ErbB4 peptide PY3 (1293-1305)] | Kd [7]: > 200 µM; Kd [6]: 78 µM; dH [6]: -23 kcal/mol
